Laboratory results taken from the supplement of paper PMC5998384.

Experiments:
HeLa Kyoto [1] = assay: thermal stability score vs G1/S (z-score of summed log2 fold changes over temperatures); higher = more thermally stable than in G1/S
HeLa Kyoto [2] = assay: melting temperature (median over replicates), in situ; higher = more thermally stable
HeLa Kyoto [3] = assay: solubility in G1/S (NP-40 vs SDS abundance) (log2 ratio); higher = more soluble; conditions: cell cycle stage: G1/S
HeLa Kyoto [4] = assay: solubility change mitosis vs G1/S (difference of NP-40 vs SDS log2 ratios) (log2 ratio difference); higher = more soluble in mitosis
[5] = cell cycle stage: early G1 (4.5 h after nocodazole release)
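Wherever melting temperature (median over replicates), in situ is given: HeLa Kyoto cells synchronized by double thymidine or nocodazole block, proteins quantified by TMT10plex mass spectrometry, three independent biological replicates.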
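Wherever solubility change mitosis vs G1/S (difference of NP-40 vs SDS log2 ratios) is given: synchronized HeLa Kyoto cells (double thymidine block for G1/S, nocodazole release for mitosis), protein amounts in NP-40 versus SDS lysates quantified by mass spectrometry, three biological replicates.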
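Wherever solubility in G1/S (NP-40 vs SDS abundance) is given: HeLa Kyoto cells arrested at G1/S by double thymidine block, proteins quantified by TMT10plex mass spectrometry in mild NP-40 versus SDS extracts, three biological replicates.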
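Wherever thermal stability score vs G1/S (z-score of summed log2 fold changes over temperatures) is given: synchronized HeLa Kyoto cells, proteins quantified by TMT10plex mass spectrometry, three biological replicates, mitosis taken 0.5 h after nocodazole release, G1/S directly after double thymidine block.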

## MADQLYLENIDEFVTDQNKIVTYKWLSYTLGVHVNQAKQMLYDYVERKRKENSGAQLHVTYLVSGSLIQNGHSCHKVAVVREDKLEAVKSKLAVTASIHVYSIQKAMLKDSGPLFNTDYDILKSNLQNCSKFSAIQCAAAVPRAPAESSSSSKKFEQSHLHMSSETQANNELTTNGHGPPASKQVSQQPKGIMGMFASKAAAKTQETNKETKTEAKEVTNASAAGNKAPGKGNMMSNFFGKAAMNKFKVNLDSEQAVKEEKIVEQPTVSVTEPKLATPAGLKKSSKKAEPVKVLQKEKKRGKRVALSDDETKETENMRKKRRRIKLPESDSSEDEVFPDSPGAYEAESPSPPPPPSPPLEPVPKTEPEPPSVKSSSGENKRKRKRVLKSKTYLDGEGCIVTEKVYESESCTDSEEELNMKTSSVHRPPAMTVKKEPREERKGPKKGTAALGKANRQVSITGFFQRK [POLD3]
HeLa Kyoto [1]; [5]
  thermal stability score: 0.776
HeLa Kyoto [1]; cell cycle stage: mitosis
  thermal stability score: 2.8
HeLa Kyoto [2]; cell cycle stage: G1/S
  melting temperature: 47 °C
HeLa Kyoto [2]; cell cycle stage: mitosis
  melting temperature: 48.1 °C
HeLa Kyoto [3]
  solubility in G1/S (log2): 0.0553
HeLa Kyoto [4]
  solubility change mitosis (log2): -0.0027

## MATDWLGSIVSINCGDSLGVYQGRVSAVDQVSQTISLTRPFHNGVKCLVPEVTFRAGDITELKILEIPGPGDNQHFGDLHQTELGPSGAGCQVGINQNGTGKFVKKPASSSSAPQNIPKRTDVKSQDVAVSPQQQQCSKSYVDRHMESLSQSKSFRRRHNSWSSSSRHPNQATPKKSGLKNGQMKNKDDECFGDDIEEIPDTDFDFEGNLALFDKAAVFEEIDTYERRSGTRSRGIPNERPTRYRHDENILESEPIVYRRIIVPHNVSKEFCTDSGLVVPSISYELHKKLLSVAEKHGLTLERRLEMTGVCASQMALTLLGGPNRLNPKNVHQRPTVALLCGPHVKGAQGISCGRHLANHDVQVILFLPNFVKMLESITNELSLFSKTQGQQVSSLKDLPTSPVDLVINCLDCPENVFLRDQPWYKAAVAWANQNRAPVLSIDPPVHEVEQGIDAKWSLALGLPLPLGEHAGRIYLCDIGIPQQVFQEVGINYHSPFGCKFVIPLHSA [EDC3]
HeLa Kyoto [1]; [5]
  thermal stability score: 1.79
HeLa Kyoto [1]; cell cycle stage: mitosis
  thermal stability score: 1.47
HeLa Kyoto [2]; cell cycle stage: G1/S
  melting temperature: 50.1 °C
HeLa Kyoto [2]; cell cycle stage: mitosis
  melting temperature: 50 °C
HeLa Kyoto [3]
  solubility in G1/S (log2): -0.0361
HeLa Kyoto [4]
  solubility change mitosis (log2): 0.245

## MNLASQSGEAGAGQLLFANFNQDNTEVKGASRAAGLGRRAVVWSLAVGSKSGYKFFSLSSVDKLEQIYECTDTEDVCIVERLFSSSLVAIVSLKAPRKLKVCHFKKGTEICNYSYSNTILAVKLNRQRLIVCLEESLYIHNIRDMKVLHTIRETPPNPAGLCALSINNDNCYLAYPGSATIGEVQVFDTINLRAANMIPAHDSPLAALAFDASGTKLATASEKGTVIRVFSIPEGQKLFEFRRGVKRCVSICSLAFSMDGMFLSASSNTETVHIFKLETVKEKPPEEPTTWTGYFGKVLMASTSYLPSQVTEMFNQGRAFATVRLPFCGHKNICSLATIQKIPRLLVGAADGYLYMYNLDPQEGGECALMKQHRLDGSLETTNEILDSASHDCPLVTQTYGAAAGKGTYVPSSPTRLAYTDDLGAVGGACLEDEASALRLDEDSEHPPMILRTD [WIPI2]
HeLa Kyoto [1]; [5]
  thermal stability score: -0.953
HeLa Kyoto [1]; cell cycle stage: mitosis
  thermal stability score: -0.659
HeLa Kyoto [2]; cell cycle stage: G1/S
  melting temperature: 50.4 °C
HeLa Kyoto [2]; cell cycle stage: mitosis
  melting temperature: 51.1 °C
HeLa Kyoto [3]
  solubility in G1/S (log2): 0.0209
HeLa Kyoto [4]
  solubility change mitosis (log2): -0.0675

## MKKFFQEFKADIKFKSAGPGQKLKESVGEKAHKEKPNQPAPRPPRQGPTNEAQMAAAAALARLEQKQSRAWGPTSQDTIRNQVRKELQAEATVSGSPEAPGTNVVSEPREEGSAHLAVPGVYFTCPLTGATLRKDQRDACIKEAILLHFSTDPVAASIMKIYTFNKDQDRVKLGVDTIAKYLDNIHLHPEEEKYRKIKLQNKVFQERINCLEGTHEFFEAIGFQKVLLPAQDQEDPEEFYVLSETTLAQPQSLERHKEQLLAAEPVRAKLDRQRRVFQPSPLASQFELPGDFFNLTAEEIKREQRLRSEAVERLSVLRTKAMREKEEQRGLRKYNYTLLRVRLPDGCLLQGTFYARERLGAVYGFVREALQSDWLPFELLASGGQKLSEDENLALNECGLVPSALLTFSWDMAVLEDIKAAGAEPDSILKPELLSAIEKLL [UBXN6]
HeLa Kyoto [1]; [5]
  thermal stability score: 0.361
HeLa Kyoto [1]; cell cycle stage: mitosis
  thermal stability score: 0.361
HeLa Kyoto [2]; cell cycle stage: mitosis
  melting temperature: 47.8 °C
HeLa Kyoto [3]
  solubility in G1/S (log2): 0.337
HeLa Kyoto [4]
  solubility change mitosis (log2): -0.0563

## MLRRGSQALRRFSTGRVYFKNKLKLALIGQSLFGQEVYSHLRKEGHRVVGVFTVPDKDGKADPLALAAEKDGTPVFKLPKWRVKGKTIKEVAEAYRSVGAELNVLPFCTQFIPMDIIDSPKHGSIIYHPSILPRHRGASAINWTLIMGDKKAGFSVFWADDGLDTGPILLQRSCDVEPNDTVDALYNRFLFPEGIKAMVEAVQLIADGKAPRIPQPEEGATYEGIQKKENAEISWDQSAEVLHNWIRGHDKVPGAWTEINGQMVTFYGSTLLNSSVPPGEPLEIKGAKKPGLVTKNGLVLFGNDGKALTVRNLQFEDGKMIPASQYFSTGETSVVELTAEEVKVAETIKVIWAGILSNVPIIEDSTDFFKSGASSMDVARLVEEIRQKCGGLQLQNEDVYMATKFEGFIQKVVRKLRGEDQEVELVVDYISKEVNEIMVKMPYQCFINGQFTDADDGKTYDTINPTDGSTICKVSYASLADVDKAVAAAKDAFENGEWGRMNARERGRLMYRLADLLEENQEELATIEALDSGAVYTLALKTHIGMSVQTFRYFAGWCDKIQGSTIPINQARPNRNLTFTKKEPLGVCAIIIPWNYPLMMLAWKSAACLAAGNTLVLKPAQVTPLTALKFAELSVKAGFPKGVINIIPGSGGIAGQRLSEHPDIRKLGFTGSTPIGKQIMKSCAVSNLKKVSLELGGKSPLIIFNDCELDKAVRMGMGAVFFNKGENCIAAGRLFVEESIHDEFVTRVVEEIKKMKIGDPLDRSTDHGPQNHKAHLEKLLQYCETGVKEGATLVYGGRQVQRPGFFMEPTVFTDVEDYMYLAKEESFGPIMVISKFQNGDIDGVLQRANSTEYGLASGVFTRDINKAMYVSEKLEAGTVFINTYNKTDVAAPFGGVKQSGFGKDLGEEALNEYLKTKTVTLEY [ALDH1L2]
HeLa Kyoto [1]; [5]
  thermal stability score: -0.0085
HeLa Kyoto [1]; cell cycle stage: mitosis
  thermal stability score: -0.149
HeLa Kyoto [2]; cell cycle stage: G1/S
  melting temperature: 51.6 °C
HeLa Kyoto [2]; cell cycle stage: mitosis
  melting temperature: 51.2 °C
HeLa Kyoto [3]
  solubility in G1/S (log2): 0.0306
HeLa Kyoto [4]
  solubility change mitosis (log2): -0.105
